Assay results published in EP4467153A1, “CONSTRAINED PEPTIDE INHIBITORS OF LRRK2-FADD INTERACTIONS” (University of Georgia Research Foundation, Inc., priority 2023, dated 2024).
Entries after “also recorded” stand apart in the source; their conditions may differ. Positions of bridges follow the written chain, without caps; N, C: chain ends. Non-standard residues stand in square brackets, D forms with d. Primed or numbered codes have the meaning given here. FAM = 5(6)-carboxyfluorescein label; S5 = C=CCCC[C@](C)(N)C(=O)O; PEG3′ = PEG3 spacer

Experiments:
G2019S-LRRK2 = biological target: T1, G2019S-LRRK2 (Homo sapiens, UniProt Q5S007, G2019S); test: LRRK2 kinase function in HEK293T cells co-transfected with G2019S-LRRK2 and Flag-Rab10 (western blot); assay type: cell-based; details: G2019S-LRRK2 + Rab10, peptide at indicated concentrations, 24hr
T1 construct: expressed in transfected cells; host or cells: HEK293T
Description: Since the peptides were designed to block LRRK2 from interacting with FADD, they should not have any effect on the catalytic kinase activity of LRRK2. To determine whether the PPI-disrupting FARMS peptide alters LRRK2 kinase activity in cells, HEK293T cells were co-transfected with WT or G019S-LRRK2 together with Rab10. Cells over-expressing mutant LRRK2 and human WT RablO were treated with FARMS and the cell extracts were probed for multiple indices of LRRK2 kinase activity including phosphorylated Rab10 and pS1292-LRRK2.
Assessment of LRRK2 kinase function. To determine whether peptides targeting the LRRK2-FADD PPI could also alter kinase function, LRRK2 activity was assessed in a cellular setting, through the phosphorylation of an endogenous substrate (pT73-Rab10), as well as auto-phosphorylation (pS1292-LRRK2). […] Parallel cultures were transfected with only WT or R1441C-LRRK2; and endogenous levels of phosphorylated RablO were assessed. Following 72hr of total expression, the cells were washed in cold PBS and collected. Cell lysis was performed using the following buffer: 50mM Tris HCl, pH 7.5; 1mM EGTA; 0.27 M sucrose; 1% Triton X-100; supplemented with protease and phosphatase inhibitor cocktails, and cell extracts stored at -80°C until use. […] For quantification, the band intensities for phosphorylated Rab 10 or LRRK2 were normalized to total expression of the respective protein.

[1] = test system: primary cortical neurons expressing G2019S-LRRK2; test: Assessment of neuronal death (apoptotic nuclear features of transfected neurons); assay type: cell-based, mouse; details: 48hr treatment, vs vehicle
Text: Disruption of the LRRK2-FADD PPI is neuroprotective. It has been previously shown that over-expression of mutant LRRK2 (G2019S or other pathogenic mutations) in primary cortical neurons results in apoptotic death of the neurons (see Iaccarino C, Crosio C, Vitale C, Sanna G, Carri MT, Barone P (2007) Apoptotic mechanisms in mutant LRRK2-mediated cell death. Hum Mol Genet 16, 1319-1326); and this example continues this area of identifying pathway(s) underlying cell-autonomous neuronal death in models of LRRK2-PD. […] Disruption of this interaction by dominant negative fragments of both FADD and LRRK2, or by deletion of the predicted FADD-binding domain within LRRK2, is neuroprotective against over-expression of mutant LRRK2. To determine whether FARMS could effectively disrupt the apoptotic death of primary neurons induced by pathogenic LRRK2, mouse embryonic cortical neurons were transiently transfected with G2019S-LRRK2 and increasing concentrations of the FARMS peptide were added. In cultures of neurons expressing G2019S-LRRK2, apoptotic Flag-positive neurons with characteristic fragmented and condensed nuclear apoptotic features, were observed as has been reported previously. […] A third neuron is visible within this field (with a condensed nucleus), however it is not expressing Flag-LRRK2, so would not be included in the assessment of neuronal death. the dose response of neuroprotection of FARMS was determined by counting the percentage of transfected neurons (stained with anti-Flag antibodies).
Assessment of Neuronal Death. […] Cells were centrifuged and counted and plated on poly-D-lysine coated glass coverslips at a density of 150,000/cm^2 in BrainPhys neuronal culture medium (StemCell Technologies) supplemented with SM1 Neuronal Supplement (StemCell Technologies), L-glutamine (0.5 mM) and […]. […] For quantification of apoptotic neuronal profiles, we used the approach described by Antoniou and colleagues. Briefly, individual Flag-positive neurons were assessed by a research blinded to the experimental conditions.

R1441C-LRRK2 = biological target: T2, R1441C-LRRK2 (Homo sapiens, UniProt Q5S007, R1441C); test: LRRK2 kinase function in HEK293T cells over-expressing R1441C-LRRK2, endogenous Rab10 (western blot); assay type: cell-based; details: increasing doses of peptide
T2 construct: expressed in transfected cells; host or cells: HEK293T
Description: Assessment of LRRK2 kinase function. To determine whether peptides targeting the LRRK2-FADD PPI could also alter kinase function, LRRK2 activity was assessed in a cellular setting, through the phosphorylation of an endogenous substrate (pT73-Rab10), as well as auto-phosphorylation (pS1292-LRRK2). […] Parallel cultures were transfected with only WT or R1441C-LRRK2; and endogenous levels of phosphorylated RablO were assessed. Following 72hr of total expression, the cells were washed in cold PBS and collected. Cell lysis was performed using the following buffer: 50mM Tris HCl, pH 7.5; 1mM EGTA; 0.27 M sucrose; 1% Triton X-100; supplemented with protease and phosphatase inhibitor cocktails, and cell extracts stored at -80°C until use. The extracts were separated by SDS-PAGE and proteins transferred to nitrocellulose membranes, which were probed for total/pS1292-LRRK2, total/pT73-Rab10, or β-actin. For quantification, the band intensities for phosphorylated Rab 10 or LRRK2 were normalized to total expression of the respective protein.

T1 sequence (Q5S007 whole entry G2019S): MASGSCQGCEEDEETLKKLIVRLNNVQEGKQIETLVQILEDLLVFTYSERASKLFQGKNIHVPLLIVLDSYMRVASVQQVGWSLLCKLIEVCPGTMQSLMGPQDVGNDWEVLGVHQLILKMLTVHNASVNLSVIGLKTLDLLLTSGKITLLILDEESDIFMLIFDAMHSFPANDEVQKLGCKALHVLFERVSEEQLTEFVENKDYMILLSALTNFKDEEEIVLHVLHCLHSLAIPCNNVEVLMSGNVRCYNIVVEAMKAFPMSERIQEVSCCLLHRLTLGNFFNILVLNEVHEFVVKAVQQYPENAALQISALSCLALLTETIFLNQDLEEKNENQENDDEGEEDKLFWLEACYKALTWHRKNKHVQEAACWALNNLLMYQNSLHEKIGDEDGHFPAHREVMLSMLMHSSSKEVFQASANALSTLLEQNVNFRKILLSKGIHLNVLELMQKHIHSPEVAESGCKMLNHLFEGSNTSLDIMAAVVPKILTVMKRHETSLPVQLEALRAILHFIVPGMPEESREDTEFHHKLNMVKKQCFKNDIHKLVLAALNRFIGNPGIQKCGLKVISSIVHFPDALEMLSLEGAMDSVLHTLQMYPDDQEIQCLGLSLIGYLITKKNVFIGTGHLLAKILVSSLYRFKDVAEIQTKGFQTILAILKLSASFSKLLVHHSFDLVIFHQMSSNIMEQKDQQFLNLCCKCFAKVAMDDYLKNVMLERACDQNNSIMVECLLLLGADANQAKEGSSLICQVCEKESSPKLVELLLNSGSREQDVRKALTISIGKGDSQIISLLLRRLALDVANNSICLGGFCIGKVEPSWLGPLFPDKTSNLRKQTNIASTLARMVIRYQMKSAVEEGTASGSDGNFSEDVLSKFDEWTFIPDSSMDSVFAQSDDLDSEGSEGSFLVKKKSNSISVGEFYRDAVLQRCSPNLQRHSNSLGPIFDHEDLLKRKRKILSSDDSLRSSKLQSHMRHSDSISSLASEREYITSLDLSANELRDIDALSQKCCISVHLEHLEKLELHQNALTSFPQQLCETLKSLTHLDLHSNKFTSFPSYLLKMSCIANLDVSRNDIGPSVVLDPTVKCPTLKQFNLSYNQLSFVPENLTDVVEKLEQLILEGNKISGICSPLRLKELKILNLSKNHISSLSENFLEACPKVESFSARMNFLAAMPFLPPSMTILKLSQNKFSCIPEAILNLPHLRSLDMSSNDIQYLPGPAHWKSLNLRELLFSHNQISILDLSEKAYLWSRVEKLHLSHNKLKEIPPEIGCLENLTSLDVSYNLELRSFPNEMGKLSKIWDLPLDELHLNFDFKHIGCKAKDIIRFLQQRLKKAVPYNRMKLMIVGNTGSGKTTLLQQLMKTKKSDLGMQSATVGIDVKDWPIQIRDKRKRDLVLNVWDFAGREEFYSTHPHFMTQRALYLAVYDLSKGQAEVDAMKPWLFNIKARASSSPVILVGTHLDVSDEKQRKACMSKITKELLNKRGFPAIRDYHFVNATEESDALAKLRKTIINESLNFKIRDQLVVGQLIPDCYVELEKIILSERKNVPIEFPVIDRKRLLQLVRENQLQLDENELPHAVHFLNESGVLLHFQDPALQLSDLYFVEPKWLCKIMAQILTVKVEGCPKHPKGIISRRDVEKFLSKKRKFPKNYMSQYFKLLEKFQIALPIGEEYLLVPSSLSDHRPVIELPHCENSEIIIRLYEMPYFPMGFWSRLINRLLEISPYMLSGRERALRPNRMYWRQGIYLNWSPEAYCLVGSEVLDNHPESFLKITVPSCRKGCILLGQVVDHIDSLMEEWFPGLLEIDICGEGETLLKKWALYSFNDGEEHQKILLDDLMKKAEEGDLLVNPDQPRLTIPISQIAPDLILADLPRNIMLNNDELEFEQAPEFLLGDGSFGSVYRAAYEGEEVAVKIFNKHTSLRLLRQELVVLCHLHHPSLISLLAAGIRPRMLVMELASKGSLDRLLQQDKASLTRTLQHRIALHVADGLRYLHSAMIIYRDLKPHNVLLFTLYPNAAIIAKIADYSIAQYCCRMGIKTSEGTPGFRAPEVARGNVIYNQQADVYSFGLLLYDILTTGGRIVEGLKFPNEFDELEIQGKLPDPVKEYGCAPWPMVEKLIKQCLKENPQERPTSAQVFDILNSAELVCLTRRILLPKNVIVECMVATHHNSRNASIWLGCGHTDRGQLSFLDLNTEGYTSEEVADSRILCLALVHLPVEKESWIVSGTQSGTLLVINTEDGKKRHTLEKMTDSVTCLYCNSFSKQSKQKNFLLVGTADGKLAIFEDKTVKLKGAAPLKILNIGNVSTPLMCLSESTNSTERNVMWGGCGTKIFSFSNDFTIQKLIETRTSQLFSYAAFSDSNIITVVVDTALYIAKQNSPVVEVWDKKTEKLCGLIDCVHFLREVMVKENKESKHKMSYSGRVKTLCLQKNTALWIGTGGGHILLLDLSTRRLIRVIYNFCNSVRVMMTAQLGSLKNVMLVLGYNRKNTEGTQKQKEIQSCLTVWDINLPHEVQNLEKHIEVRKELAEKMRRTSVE
T2 sequence (Q5S007 whole entry R1441C): as the sequence (Q5S007 whole entry G2019S) above, with R1441C, S2019G counted along it

In the case of “FARM5: FAM-labeled hydrocarbon-stapled FADD Armadillo domain peptide; mass fits SEQ ID NO. 6 KVADLVQEVQQAXDLQXRSK ({FAM-PEG3′}-KVADLVQEVQQA[S5]DLQ[S5]RSK-NH2; staple 13-17; also: FAM label, optionally 5(6)FAM-PEG3 on N-terminal lysine) [FAM-labeled hydrocarbon-stapled FADD Armadillo domain peptide; 6 …XDLQXRSK]”, the “phosphorylation of over-expressed Rab10 (pT73)” value (G2019S-LRRK2) is reported as “unexpected increase”, the “auto-phosphorylation of LRRK2 at Ser1292 (pS1292-LRRK2)” value (G2019S-LRRK2; listed as FARMS) is reported as “any loss in phosphorylation of pS1292-LRRK2 or RablO could be detected; also recorded: un-affected” and the “percentage of neurons with apoptotic profiles” value (from here on “percentage of neurons”) ([1]; 0.1 µM) is reported as “unable to significantly block apoptotic neuronal death”. For the same substance, the “percentage of neurons” value ([1]; 1 µM, listed as FARMS) was “significantly reduced; also recorded: reduced evidence of chromatin condensation”, the “percentage of neurons” value ([1]; 10 µM, listed as FARMS) was “significantly reduced; also recorded: restored neuronal death to WT levels” and the “phosphorylation of endogenous Rab10 (pT73) by R1441C-LRRK2” value (R1441C-LRRK2) was “un-affected”.
